Test results reported in patent publication US20220024975A1 (ARROWHEAD PHARMACEUTICALS, published 2022).
Several values for one entry are separate records, joined by “and”; a condition that tells them apart may be missing. Identical values can stand only once. Non-standard residues stand in square brackets, D forms with d. No end group written: not given here. *: point of attachment. MeO‑PEG8 = N-terminal cap, methoxy-PEG with 8 ethylene glycol units; guanidinyl = N-terminal guanidinyl cap, N=C(N)*; Pentanoyl(5-guanidino) = NC(N)=NCCCCC(=O)*; Cha = N[C@@H](CC1CCCCC1)C(=O)O; Cit = NC(=O)NCCC[C@H](N)C(=O)O; Agp = N=C(N)NC[C@H](N)C(=O)O; Abu = CC[C@H](N)C(=O)O; Aib = CC(C)(N)C(=O)O; Sar = CNCC(=O)O

Target: T1, αvβ6 integrin (human, UniProt P06756 31-1048; P18564 22-788)
T1 construct: whole, on cells; target is the endogenous integrin on αvβ6 positive-control cell lines; also called Integrin alpha-v beta-6
T1 sequence (P06756 31-1048, chain 1 of 2): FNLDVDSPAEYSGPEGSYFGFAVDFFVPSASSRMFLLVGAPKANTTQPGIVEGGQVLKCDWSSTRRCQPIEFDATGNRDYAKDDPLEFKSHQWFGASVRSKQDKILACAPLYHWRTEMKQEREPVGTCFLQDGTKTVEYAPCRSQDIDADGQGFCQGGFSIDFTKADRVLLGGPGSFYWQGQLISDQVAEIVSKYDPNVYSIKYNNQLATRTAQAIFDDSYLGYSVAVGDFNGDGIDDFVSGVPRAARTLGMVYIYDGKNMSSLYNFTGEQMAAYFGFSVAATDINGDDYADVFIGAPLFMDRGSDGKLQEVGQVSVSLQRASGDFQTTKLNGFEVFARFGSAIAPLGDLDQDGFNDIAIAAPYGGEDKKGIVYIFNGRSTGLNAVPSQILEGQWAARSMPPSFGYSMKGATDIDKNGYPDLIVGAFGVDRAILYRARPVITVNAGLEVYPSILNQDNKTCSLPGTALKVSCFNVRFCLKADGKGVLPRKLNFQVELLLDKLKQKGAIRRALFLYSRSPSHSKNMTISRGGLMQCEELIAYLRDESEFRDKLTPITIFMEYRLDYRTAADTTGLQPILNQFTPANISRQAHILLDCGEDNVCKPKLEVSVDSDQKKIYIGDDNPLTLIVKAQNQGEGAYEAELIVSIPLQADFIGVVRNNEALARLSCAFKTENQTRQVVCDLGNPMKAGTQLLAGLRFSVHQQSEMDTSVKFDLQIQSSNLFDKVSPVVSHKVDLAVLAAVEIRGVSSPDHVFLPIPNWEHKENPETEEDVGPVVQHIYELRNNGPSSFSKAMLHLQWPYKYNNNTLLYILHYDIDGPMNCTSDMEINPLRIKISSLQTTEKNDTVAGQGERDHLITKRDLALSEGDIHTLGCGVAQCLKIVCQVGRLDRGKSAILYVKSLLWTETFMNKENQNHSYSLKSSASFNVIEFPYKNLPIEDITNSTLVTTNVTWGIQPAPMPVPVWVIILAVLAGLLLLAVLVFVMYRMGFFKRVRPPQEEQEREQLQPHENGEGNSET
T1 sequence (P18564 22-788, chain 2 of 2): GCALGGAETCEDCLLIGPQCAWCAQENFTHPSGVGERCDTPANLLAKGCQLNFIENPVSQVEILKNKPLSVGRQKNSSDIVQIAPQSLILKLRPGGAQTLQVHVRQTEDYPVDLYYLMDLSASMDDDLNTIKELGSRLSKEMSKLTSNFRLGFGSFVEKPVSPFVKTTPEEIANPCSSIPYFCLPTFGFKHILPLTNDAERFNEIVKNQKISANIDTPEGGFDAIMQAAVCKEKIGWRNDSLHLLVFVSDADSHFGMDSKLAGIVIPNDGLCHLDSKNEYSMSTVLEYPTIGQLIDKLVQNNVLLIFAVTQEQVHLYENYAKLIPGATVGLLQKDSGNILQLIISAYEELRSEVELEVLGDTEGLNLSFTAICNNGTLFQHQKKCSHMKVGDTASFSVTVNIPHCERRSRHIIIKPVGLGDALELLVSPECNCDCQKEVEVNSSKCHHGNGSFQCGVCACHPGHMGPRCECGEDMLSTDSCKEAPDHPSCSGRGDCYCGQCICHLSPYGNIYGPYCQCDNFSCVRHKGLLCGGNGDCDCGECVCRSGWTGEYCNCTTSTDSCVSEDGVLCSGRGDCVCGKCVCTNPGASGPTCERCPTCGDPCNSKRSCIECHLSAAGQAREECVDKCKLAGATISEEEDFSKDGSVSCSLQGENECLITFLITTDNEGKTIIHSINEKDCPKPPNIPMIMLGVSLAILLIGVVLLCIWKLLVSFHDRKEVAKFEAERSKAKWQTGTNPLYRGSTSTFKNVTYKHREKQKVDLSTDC
Assay: flow cytometry, Cy5-polymer conjugate 5 µg/ml, CAPAN-2 cells

| MFI (specific MFI ratio, sample/no-ligand) | Molecule |
| --- | --- |
| 7.9 | Ac-RGDLA[Abu]L |
| 8.9 | Ac-RGDLA[Abu]L[Aib] |
| 7.7 | Ac-RGDLA[Abu]L[Cit][Aib]L |
| 0.9 | Ac-RGDαMeLAAbuLCitAib (peptide) |
| 1 | Ac-RGαMeDLAAbuLCitAib (peptide) |

Target: T1, αvβ6 integrin
Assay: flow cytometry, Cy5-polymer conjugate on H2009 / CAPAN-2 cells
Text: B. αvβ6 ligand binding (flow cytometric analyses). To assess for specificity of binding of the αvβ6 ligands to the αvβ6 integrin, each αvβ6 ligand or negative control peptide was conjugated to a Cy5-labeled polymer (as described above) and evaluated for binding to cells. […] H2009 (human lung epithelial adenocarcinoma) and CAPAN-2 (human pancreas adenocarcinoma) cells served as the αvβ6 positive-control cell lines. Cells were detached from culturing flasks with Accutase, washed in PBS, and seeded into 5 ml polystyrene round-bottom tubes at 200,000 cells in 200 μl complete media (culturing media with supplements and fetal calf serum). αvβ6 ligand-polymer conjugates or no-ligand-polymer conjugates were added at 5 μg/ml (polymer-Cy5 concentration) to cells, mixed and incubated at 37° C. for 3 h. […] Samples were analyzed on a BD Biosciences Canto II cytometer equipped with a violet (405 nm), blue (488 nm) and red (633 nm) lasers.
Viable cells were initially gated as the SYTOX blue negative population on the C detector with the violet laser. These viable cells were then assessed for conjugate binding/uptake with the red laser as the Mean Fluorescence Intensity (MFI) of the Cy5 fluorophore. […] A specific MFI Ratio (sMFIr) for each αvβ6 ligand was determined by the formula: […]

| Molecule | binding result |
| --- | --- |
| RGELATLRQL (not fully specified; printed as RGELATLRQL (RGE control), Negative control; Tested as ligand-(PEG)8-K-HyNic conjugated to Cy5-labelled 1170-100B polymer) [RGELATLRQL (RGE control)] | no binding (tested: 5 µg/ml (polymer-Cy5 concentration)) |

Target: T1, αvβ6 integrin
Assay: flow cytometry, Cy5-polymer conjugate 5 µg/ml, H2009 cells
Text: B. αvβ6 ligand binding (flow cytometric analyses). To assess for specificity of binding of the αvβ6 ligands to the αvβ6 integrin, each αvβ6 ligand or negative control peptide was conjugated to a Cy5-labeled polymer (as described above) and evaluated for binding to cells. […] H2009 (human lung epithelial adenocarcinoma) and CAPAN-2 (human pancreas adenocarcinoma) cells served as the αvβ6 positive-control cell lines. Cells were detached from culturing flasks with Accutase, washed in PBS, and seeded into 5 ml polystyrene round-bottom tubes at 200,000 cells in 200 μl complete media (culturing media with supplements and fetal calf serum). αvβ6 ligand-polymer conjugates or no-ligand-polymer conjugates were added at 5 μg/ml (polymer-Cy5 concentration) to cells, mixed and incubated at 37° C. for 3 h. Incubation at 37° C. facilitated ligand/receptor interaction which may result in static binding to the extracellular cell surface and/or internalized ligand/receptor complexes. The mixture was re-suspended at 1 h intervals. Following a 3 h incubation, cells were washed 2× with 4 ml chilled buffer (PBS-2% FCS) and re-suspended in 200 μl buffer containing 10 μM SYTOX blue stain for live/dead cell gating. Samples were analyzed on a BD Biosciences Canto II cytometer equipped with a violet (405 nm), blue (488 nm) and red (633 nm) lasers.
Viable cells were initially gated as the SYTOX blue negative population on the C detector with the violet laser. These viable cells were then assessed for conjugate binding/uptake with the red laser as the Mean Fluorescence Intensity (MFI) of the Cy5 fluorophore. Data analyses were performed with FlowJo v10.1 software. A specific MFI Ratio (sMFIr) for each αvβ6 ligand was determined by the formula: […]

| MFI (specific MFI ratio, sample/no-ligand) | Molecule |
| --- | --- |
| 1.3 | Ac-RGDLAAbuNMeLCitAib (peptide) |
| 2.4 | Ac-RGDLAEL[Cit][Aib] |
| 2 | Ac-RGDLAFL[Cit][Aib] |
| 3.8 | Ac-RGDLAGL[Cit][Aib] |
| 3.6 | Ac-RGDLAKL[Cit][Aib] |
| 2.8 | Ac-RGDLAPL[Cit][Aib] |
| 3.6 | Ac-RGDLAQL[Cit][Aib] |
| 3.94 | Ac-RGDLATL[Cit]QL |
| 2.6 | Ac-RGDLA[Abu]L |
| 1.9 | Ac-RGDLA[Abu]LE[Aib] |
| 3.6 | Ac-RGDLA[Abu]LF[Aib] |
| 4 | Ac-RGDLA[Abu]LG[Aib] |
| 5.4 | Ac-RGDLA[Abu]LK[Aib] |
| 1.6 | Ac-RGDLA[Abu]LP[Aib] |
| 4.4 | Ac-RGDLA[Abu]LQ[Aib] |
| 6.47 | Ac-RGDLA[Abu]LRQL |
| 3.2 | Ac-RGDLA[Abu]L[Aib] |
| 3.3 | Ac-RGDLA[Abu]L[Cit] |
| 4 | Ac-RGDLA[Abu]L[Cit]E |
| 3.7 | Ac-RGDLA[Abu]L[Cit]F |
| 4.8 | Ac-RGDLA[Abu]L[Cit]G |
| 5.2 | Ac-RGDLA[Abu]L[Cit]K |
| 4 | Ac-RGDLA[Abu]L[Cit]P |

| MFI (specific MFI ratio, sample/no-ligand) | Molecule |
| --- | --- |
| 4.4 | Ac-RGDLA[Abu]L[Cit]Q |
| 4.7 and 3.8 | Ac-RGDLA[Abu]L[Cit][Aib] |
| 3.2 and 4.55 and 4.6 | Ac-RGDLA[Abu]L[Cit][Aib]L |
| 2.6 | Ac-RGDLE[Abu]L[Cit][Aib] |
| 2.7 | Ac-RGDLF[Abu]L[Cit][Aib] |
| 3.7 | Ac-RGDLG[Abu]L[Cit][Aib] |
| 3.6 | Ac-RGDLK[Abu]L[Cit][Aib] |
| 1 | Ac-RGDLP[Abu]L[Cit][Aib] |
| 3.7 | Ac-RGDLQ[Abu]L[Cit][Aib] |
| 4 | Ac-RGDL[Aib]TLRQL |
| 5.1 | Ac-RGDL[Cha]TLRQL |
| 1.6 | Ac-RGDL[Cha][Abu]L[Cit][Aib] |
| 2.34 | Ac-RGDLβ3-hAAbuLCitAib (peptide) |
| 4.5 | Ac-RGDLβ3-hATLRQL (peptide) |
| 1 | Ac-RGDNMeLAAbuLCitAib (peptide) |
| 0.8 and 1 | Ac-RGDαMeLAAbuLCitAib (peptide) |
| 0.9 and 1 | Ac-RGαMeDLAAbuLCitAib (peptide) |
| 2.6 | Ac-R[Sar]DLA[Abu]L[Cit][Aib] |
| 0.99 | Ac-[Cit]GDLATL[Cit]QL |
| 4.2 | CH3(CH2)1CO-RGDLAAbuLCitAib (peptide) |
| 3.9 | CH3(CH2)2-RGDLAAbuLCitAib (peptide) |
| 4.3 | CH3(CH2)2CO-RGDLAAbuLCitAib (peptide) |
| 4.7 | CH3(CH2)3-RGDLAAbuLCitAib (peptide) |

| MFI (specific MFI ratio, sample/no-ligand) | Molecule |
| --- | --- |
| 4.1 | CH3(CH2)3CO-RGDLAAbuLCitAib (peptide) |
| 4.1 | CH3(CH2)4-RGDLAAbuLCitAib (peptide) |
| 3.9 | CH3(CH2)4CO-RGDLAAbuLCitAib (peptide) |
| 4.4 | CH3CH2-RGDLAAbuLCitAib (peptide) |
| 3.8 | CH3O(CH2CH2O)1CH2CH2CO-RGDLAAbuLCitAib (peptide) |
| 3.6 | CH3O(CH2CH2O)2CH2CH2CO-RGDLAAbuLCitAib (peptide) |
| 3.7 | CH3O(CH2CH2O)3CH2CH2CO-RGDLAAbuLCitAib (peptide) |
| 1.6 | CH3O(CH2CH2O)5CH2CH2CO-RGDLAAbuLCitAib (peptide) |
| 4.6 | RGDLA[Abu]L[Cit][Aib]L |
| 6.5 ratio | RGDLATLRQLEEEK(HyNic) (also: conjugated via HyNic to Cy5-labelled 1170-100B polymer, places HyNic at (1)..(1) as C-terminal, Conjugated to Cy5-labelled 1170-100B polymer; printed with its own K-(HyNic)) [RGDLATLRQLEEEK-(HyNic)] |
| 1.3 ratio | RGDLAT (not fully specified, Tested as ligand-(PEG)8-K-HyNic conjugated to Cy5-labelled 1170-100B polymer) |
| 4.7 ratio | Ac-RGDLATLRQL (not fully specified; printed as Ac-RGDLATLRQL, Tested as ligand-(PEG)8-K-HyNic conjugated to Cy5-labelled 1170-100B polymer) [Ac-RGDLATLRQL] |
| 4.3 ratio | guanidinyl-RGDLATLRQL (not fully specified; printed as Guanidinyl-RGDLATLRQL, Tested as ligand-(PEG)8-K-HyNic conjugated to Cy5-labelled 1170-100B polymer) [Guanidinyl-RGDLATLRQL] |
| 3.4 ratio | [Agp]GDLATLRQL (not fully specified; printed as Dap(guanidino)-GDLATLRQL, Tested as ligand-(PEG)8-K-HyNic conjugated to Cy5-labelled 1170-100B polymer) [Dap(guanidino)-GDLATLRQL] |
| 4.8 ratio | Me-RGDLATLRQL (not fully specified; printed as Me-RGDLATLRQL, Tested as ligand-(PEG)8-K-HyNic conjugated to Cy5-labelled 1170-100B polymer) [Me-RGDLATLRQL] |
| 6.22 ratio | Ac-RGDLAILRQL (not fully specified; printed as Ac-RGDLAILRQL, Tested as ligand-(PEG)8-K-HyNic conjugated to Cy5-labelled 1170-100B polymer) [Ac-RGDLAILRQL] |
| 6.23 ratio | Ac-RGDLAVLRQL (not fully specified; printed as Ac-RGDLAVLRQL, Tested as ligand-(PEG)8-K-HyNic conjugated to Cy5-labelled 1170-100B polymer) [Ac-RGDLAVLRQL] |
| 6.06 ratio | Ac-RGDLALLRQL (not fully specified; printed as Ac-RGDLALLRQL, Tested as ligand-(PEG)8-K-HyNic conjugated to Cy5-labelled 1170-100B polymer) [Ac-RGDLALLRQL] |
| 0.99 ratio | RGELATLRQL (not fully specified; printed as RGELATLRQL (RGE control), Negative control; Tested as ligand-(PEG)8-K-HyNic conjugated to Cy5-labelled 1170-100B polymer) [RGELATLRQL (RGE control)] |
| 1.1 | [Pentanoyl(5-guanidino)]GDLATLRQL (not fully specified (C-terminus); printed as des-amino-RGDLATLRQL; also: HyNic conjugated to Cy5-labelled 1170-100B polymer) [des-amino-…] |
| 4.7 ratio | RGDLATLRQ (not fully specified, Tested as ligand-(PEG)8-K-HyNic conjugated to Cy5-labelled 1170-100B polymer) |
| 2.9 ratio | RGDLATL (not fully specified, Tested as ligand-(PEG)8-K-HyNic conjugated to Cy5-labelled 1170-100B polymer; also called natural peptide) |
| 2.5 ratio | {MeO‑PEG8}-RGDLATLRQL (not fully specified; printed as MeO-PEG8-RGDLATLRQL, Tested as ligand-(PEG)8-K-HyNic conjugated to Cy5-labelled 1170-100B polymer) [MeO-PEG8-RGDLATLRQL] |
